The text below walks through data of the nanobody polyreactivity screen of Harvey et al. (2022).

This data set can be described thus: yeast display, Sf9 membrane polyspecificity reagent, FACS + sequencing; frameworks hold sequencing errors. The method, boiled down:
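Synthetic nanobody libraries on Saccharomyces cerevisiae BJ5465 were galactose-induced for 36–48 hours, stained 1 hour at 4 °C with 10% biotinylated, detergent-solubilized Sf9 membrane reagent and enriched on streptavidin microbeads. FACS then separated cells into low and high (top ~1%) gates by anti-HA (expression) and streptavidin (reagent binding) fluorescence. Genes were colony-PCR amplified, MiSeq 2 × 250 sequenced and CDR-length filtered. A clone's polyreactivity label is that of its gate of origin.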
Take “QVQLVESGGGLGQAGGSLRLSCAASGRIFTFNAMGWYRQAPGKARELVAAISSRGDGTYYADSVKGRFTISRDNAKNTVYLQMNSLKPEDTAVYDCAADVYPYQSLSYPLQYELDYWGQGTQVTVSS”: the “polyreactivity (PSR sort gate)” value is “low polyreactivity”. On to “QVQLVESGGGLGQAGGSLRLSCAASGRILYIYVMGRYRQARGKERELVAALTWDDGDTYYADSVKGRFTISRDNAKITVYLQMNSLKPEDTAVYNCNAGGQGVATITGHTPEFDYWGQGTQVTVSS”, for which the “polyreactivity (PSR sort gate)” value was “low polyreactivity”. As to “QVQLVESGGGLGQAGGSLRLSCAASGRTFAAYAMGWYRQAPGKERELVAAISAGDGTNYADSVKGRFTISRVNAQNTVYLQMNSLKPEDTAVYYCAAVGPLFWPYYSYRRGYDYWGQGTQVTVSS”, the “polyreactivity (PSR sort gate)” value is reported as “low polyreactivity”. The entry for “QVQLVESGGGLGQAGGSLRLSCAASGRTFDNYAMGWYRQAPGKERELVARITDTGGSTYYADSVKGRFTISRVNAKNTVYLQMNSLKPEDTAVYYCAAVSYPFAWYWLYYYWGQGTQVTVSS” is “low polyreactivity”; for “QVQLVESGGGLGQAGGSLRLSCAASGSIFDINAMGWYRQAPGKERELVAANRENGGDTYYPDSVKGRFTISRDNAKHTVYLQMNSLKPEDTAVYYCAAYSGDQAYQGDYWGQGTQVTVSS” it is “low polyreactivity”; for “QVQLVESGGGLGQAGGSLRLSCAASGSIFGKNAMGWYRQAPGKETELVAAITWSGGSTYYADSVKGRFTISRDNAKNTVYLQLNSLKPEDTAVYYCNAVRVRVTSHRFRQLDYGYWGQGTQVTVSS” it is “low polyreactivity”. The entry for “QVQLVESGGGLGQAGGSLRLSCAASGSIFSANAMGWYRQAPGKERELVASITGDGSTNYADSVKGRFTISRDNAKNTVYLQMNSLKPEDTAVYYCAADIGSWYDYWGQGTQVTVSS” is “low polyreactivity”; for “QVQLVESGGGLGQAGGSLRLSCAASGSIFYSYAMGWYRQAPGKDRELVADISSDGSTNYADSVKGRFTISRDNAKNTVFLQMNSLKPEDTAVYYCAKKPSSARYVTIGFDYWGQGTQVTVSS” it is “low polyreactivity”; for “QVQLVESGGGLGQAGGSLRLSCAASGYTFAGYAMGWYRPAPGKETELVAAISQSGGRTNYADSVKGRFTISRDNSKNTVYLQMNSLKPADTAVYYCAAEETSYTSEYWGQGTQVTVSS” it is “high polyreactivity”. “QVQLVESGGGLGQAGGSLRLSCSASGRIFDIYGMGWYRQAPGKERELVAAITSGGDTNYADSVKGRFTISRDNAKNTVYLQMNSLKPEDTAVYYCAARIRDQDRYDYDYWGQGTQVTVSS”: the “polyreactivity (PSR sort gate)” value is recorded as “low polyreactivity”. The value for “QVQLVESGGGLIQAGGSLRLSCAASGSTFPYYAMGWYRQAPVKEREFVAAIRFSGSSTYDADSVKGRYTISRDYAKTTVYLQMNSLNREDTAVYYCATDYWLPSFSYDYWGQGTQVTVSS” was “low polyreactivity”. On to “QVQLVESGGGLLHAGGSLRLSCAASGRTFYSNAMGWYRQAPGKERELVASISSRGSTNYADSVKGRFTISRDNAKNTVYLEMNSLKPEDTAVYYCAKRTHQFGVSRSYNTYYYWGHGTQVTVSS”, for which the “polyreactivity (PSR sort gate)” value was “low polyreactivity”. In the case of “QVQLVESGGGLLKAGGSLRLISAASGSIFGYNTMGWYRQAPGKERELVADISVSGDDTYYADSVKGRFTISRDNAKNTVYLQMNSLKPEDTAVSYCNAVEYFGYYNTYDYWGQGTQVTVSS”, the “polyreactivity (PSR sort gate)” value is given as “low polyreactivity”. The value for “QVQLVESGGGLLQAGGSISLSCAASGFTISPYAMGWYRQAPAKERELVAVISKSSTRTYYADSVKGRFTITRDNAKNTVYLQMNSLKPEDTAVYYCYAGCNFVSGYYYWGQGTQVTVSS” was “high polyreactivity”. In the case of “QVQLVESGGGLLQAGGSLPLSCAASGRIFIKYAMGWYRPAPGKERELVAAISQSGGSTYYADSVKGRFTISRDNAKNTVYLQMNSLKPEDTAVYYCAAGNRRLGGRLYRYYYWGQGPQVTVSS”, the “polyreactivity (PSR sort gate)” value was “high polyreactivity”. As for “QVQLVESGGGLLQAGGSLRISCAASGSILFLYDMGWYRQAPGKERELVAAIRWSGGGTYYADSVKGRFTISRDNAKNTVYLQMNSLKPEDTAVYYCAAAARYPFDVTYYYWGQGTQVTVSS”, the “polyreactivity (PSR sort gate)” value was “high polyreactivity”. For the sequence “QVQLVESGGGLLQAGGSLRLRSPASGSIFEEYAMGWYRQAPGKERELVAAITRRGGNTYYADSVKGRFTISRDNAKNTVYLQMTSLKPEDTAVYYCAAPLGNYSWQYEYWGPGTQVTVSS”, the “polyreactivity (PSR sort gate)” value is “low polyreactivity”.

As for “QVQLVESGGGLLQAGGSLRLSCAASGFIFDGYAMGWYRQAPGKERELVAAISSVGSTYYADSVKGRFTISRDNAKKTVYLQMNSLKPEDTAVYYCAAVRFYTYNYWGQGTQVTVSS”, the “polyreactivity (PSR sort gate)” value is on record as “low polyreactivity”. Turning to “QVQLVESGGGLLQAGGSLRLSCAASGFIFHHYGMGWYRQAPGKERELVAGDTHYADSVKGRFTISRDNAKNTVYLQMNSLKPEDTGVYYCNAYWKDDFEDGPGRRGMDYWGQGTQVTVSS”, the “polyreactivity (PSR sort gate)” value is reported as “low polyreactivity”. As for “QVQLVESGGGLLQAGGSLRLSCAASGFIFRRYTLGWYRQAPGKERELVAAITSSGARTYYADSVKGRFTISRDNAKNTVYLQMTSLKPEDTAVYYCYTSYRKKKRYYYWGQGTQVTVSS”, the “polyreactivity (PSR sort gate)” value is listed as “high polyreactivity”. The entry for “QVQLVESGGGLLQAGGSLRLSCAASGFIFVDNAMGWYRQAPGKERELVAAITSGASTYYADSVKGRFTISRDNAKNTVYLQMNSLKPEDTAVYYCAADYLYYYTWYNYWGQGTQVTVSS” is “low polyreactivity”; for “QVQLVESGGGLLQAGGSLRLSCAASGFILNSYAMGWYRQAPGKERELVAAITRSGGNTFYADSVKGRFKISRDNAKNTVYLQMNSLQPEDTAVYYCYAYFTYWSQLYYWGQGTQVTVSS” it is “high polyreactivity”; for “QVQLVESGGGLLQAGGSLRLSCAASGFTFHKNAMGWYRQAPGKERELVAAISRSGGRTYYADSVKGRFTISRDNAKNTVYLQMNSLKPEDTAVYYCNATPLLWAGYDYWGQGTQVTVSS” it is “high polyreactivity”. Take “QVQLVESGGGLLQAGGSLRLSCAASGFTFRNYAMGWYRQAPGKEREFVAAITGRGGSTYYADSVKGRFTISRDNAKNTVYLQMNSLKPEDTAVYYCNAYSGVSFYSSWYGYWGQGTQVTVSS”: the “polyreactivity (PSR sort gate)” value is on record as “high polyreactivity”. The entry for “QVQLVESGGGLLQAGGSLRLSCAASGFTFRPYAMGLYRQAPGKERELVAAIDYSGGSTSYADSVKGRFTISRDNAKNTVYLQLNSLKPEDTAVFSCATDYPLSWSPLYDYDYWGQGTQVTVSS” is “low polyreactivity”; for “QVQLVESGGGLLQAGGSLRLSCAASGFTFSRYAMGWYRQAPRKEMELVATISRSGGTTYYADSVKGRFTISRDNAKNTVYLLMNSLKPEDTAVYYGNTDKIWGLQYYYWGQGTQVTVSS” it is “high polyreactivity”; for “QVQLVESGGGLLQAGGSLRLSCAASGFTIYRYAMGWYRQATGKERELVAAITGGGGSTYYADSVKGRFTISRDNAKNTVYLQMNSLKPEDTAVYYCAVDVYHIGQYRWSYGYWGQGTQVTVSS” it is “low polyreactivity”.

Turning to “QVQLVESGGGLLQAGGSLRLSCAASGGIFQGNVMGWYRQAPGKERELVASIRRGGSTNYADSVKGRFTISRDNAKNTVYLQMNSLKPEDTAVYYCAARKWVGYHVWPLREYNYWGQGTQVTVSS”, the “polyreactivity (PSR sort gate)” value is on record as “low polyreactivity”. The value for “QVQLVESGGGLLQAGGSLRLSCAASGINFSKYAMGWYRQAPGTERELVAVISASGGGTYYADSVKGRFTISRDNAKNTVYLQMNSLKPEDTAVYFCAADSSDVYDYWGQGTQVTVSS” was “high polyreactivity”; that for “QVQLVESGGGLLQAGGSLRLSCAASGRIFDRNAMGWYRQAPGKERELVATISSGDTTDYADSVKGRFTISRDNAKNTVYLQMNSLKPEDTAVYYITIYNYWGQGTQVTVSS” was “low polyreactivity”; that for “QVQLVESGGGLLQAGGSLRLSCAASGRIFSTNAMGWYRQAPGKERELVAAITNGGNTNYADSVKGRFTISRDNAKITVYLQMNSLKQEDTAVYYCAKAVAYSWVDGYGYEYWGQGTQVTVSS” was “low polyreactivity”. The entry for “QVQLVESGGGLLQAGGSLRLSCAASGRIFVVYAMGWYRQAPGKERELVASITWRGGSTYYADSVKGRFTISRDNAKNTVYLQMNSLKPEDTAVYYCAAELDVYVSIGSRFHFDYWGQGTQVTVSS” is “low polyreactivity”.

As for “QVQLVESGGGLLQAGGSLRLSCAASGRTFAYNAMAWYRQAPGKERELVAAITDSDGNTYYADSVKGRFTISRDNAKNTVYLLMNSLKPEDTAVYYCAADYIILDHVTRGFVYEYWGQGTQVTVSS”, the “polyreactivity (PSR sort gate)” value is “low polyreactivity”. The entry for “QVQLVESGGGLLQAGGSLRLSCAASGRTFHLYAMGWYRQAPGKERELVAAIRGRSGSTYYADSVKGRFTISRDNAKNTVYLQMNSLKPEDTAVYYCAVGRYPYGSARYRFDYWGQGTQVTVSS” is “high polyreactivity”; for “QVQLVESGGGLLQAGGSLRLSCAASGRTSVRYAMGWYRQAPGKERELVAAISWSGGSTYYADSVKGRFTISRDHAKNTVYLQMNCLKPEDTAVYYCNAQHARGYYYWGQGTQVTVSS” it is “low polyreactivity”. The value for “QVQLVESGGGLLQAGGSLRLSCAASGRTYVWNAMGWSRQAPGKERELVAGISWRGGSTYYADSVKGRFRISRDNAKNTVYLQKNSLKPEDTAVYYFAASARFVTYKMYYWGQGTQVTVSS” was “high polyreactivity”; that for “QVQLVESGGGLLQAGGSLRLSCAASGSIFRLNAMGWYRQAPGKERELVATINYSGDSTYYADSVKGRFTISRDNAKNTVYLQMNSLKPEDTAVYFCATDYGWYDYWGQGTQVTVSS” was “low polyreactivity”. As for “QVQLVESGGGLLQAGGSLRLSCAASGSIFRYYAMGWYRQAPGKERELVATISTGGRTYYADSVKGRFTISRDNAKNTVYLQMNSLKPEVTAVYYCAAVRLTWTAKYNYWGQGTQVTVSS”, the “polyreactivity (PSR sort gate)” value was “high polyreactivity”. For “QVQLVESGGGLLQAGGSLRLSCAASGSIFYRYAMGWYRQAPWKERELVAAISRSGASTYYADSVKGRFTISRDNAKNTVYLQMNSLKPEDTAVYYCAAYFATSRLPVRYDYWGQGTQVTVSS”, the “polyreactivity (PSR sort gate)” value was “high polyreactivity”. Consider “QVQLVESGGGLLQAGGSLRLSCAASGSILYWNAMGWYRQAPGKERELVAAITGSGGSTSYADSVKGRFTISRDNAKNTVYLQMNSLKPEDTAVYYCAALQFPTPLLLYDSWGQGTQVTVSS”, for which the “polyreactivity (PSR sort gate)” value was “low polyreactivity”. “QVQLVESGGGLLQAGGSLRLSCAASGSTFKGYAMGWYRQAPGKERELVAAISWSAGSTYYADSVKGRFTISRDNAKNTVYLQMNSLKPEDTAVYYCAKASVALRYYSYSLGRDYWGQGTQVTVSS”: the “polyreactivity (PSR sort gate)” value was “low polyreactivity”.
